Data reported in paper PMC7766085.

Assays:
[1] = biological target: AT2R, endogenous in mouse lung (mouse (endogenous in CD-1 mouse lung)) (UniProt P35374); assay: proximity ligation; in situ PLA on fixed 30 µm lung sections of adult CD-1 mice; primary antibodies to the receptor and to ACE2, Duolink II probes anti-rabbit plus and anti-mouse minus; confocal microscopy
[2] = biological target: AT2R, endogenous in mouse lung (mouse (endogenous in CD-1 mouse lung)) (UniProt P35374); assay: proximity ligation; in situ PLA on fixed 30 µm lung sections of 19-day fetal CD-1 mice; primary antibodies to the receptor and to ACE2, Duolink II probes anti-rabbit plus and anti-mouse minus; confocal microscopy
[3] = biological target: AT1R, endogenous in mouse lung (mouse (endogenous in CD-1 mouse lung)) (UniProt P29754); assay: proximity ligation; in situ PLA on fixed 30 µm lung sections of adult CD-1 mice; primary antibodies to the receptor and to ACE2, Duolink II probes anti-rabbit plus and anti-mouse minus; confocal microscopy
[4] = biological target: MasR, endogenous in mouse lung (mouse (endogenous in CD-1 mouse lung)) (UniProt P30554); assay: as above
[5] = biological target: AT1R, endogenous in mouse lung (mouse (endogenous in CD-1 mouse lung)) (UniProt P29754); assay: proximity ligation; in situ PLA on fixed 30 µm lung sections of 19-day fetal CD-1 mice; primary antibodies to the receptor and to ACE2, Duolink II probes anti-rabbit plus and anti-mouse minus; confocal microscopy
[6] = biological target: MasR, endogenous in mouse lung (mouse (endogenous in CD-1 mouse lung)) (UniProt P30554); assay: as above

UniProt P29754, sequence (P29754 whole entry): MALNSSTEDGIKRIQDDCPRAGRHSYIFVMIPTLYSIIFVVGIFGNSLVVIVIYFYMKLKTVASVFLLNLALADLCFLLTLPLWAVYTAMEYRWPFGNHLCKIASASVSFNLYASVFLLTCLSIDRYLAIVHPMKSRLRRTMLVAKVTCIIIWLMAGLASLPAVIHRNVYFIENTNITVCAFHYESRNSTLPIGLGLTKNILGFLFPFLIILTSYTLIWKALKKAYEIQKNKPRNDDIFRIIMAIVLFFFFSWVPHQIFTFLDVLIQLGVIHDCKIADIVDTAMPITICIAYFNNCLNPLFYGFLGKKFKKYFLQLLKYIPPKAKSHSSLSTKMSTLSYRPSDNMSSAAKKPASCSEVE
UniProt P35374, sequence (P35374 whole entry): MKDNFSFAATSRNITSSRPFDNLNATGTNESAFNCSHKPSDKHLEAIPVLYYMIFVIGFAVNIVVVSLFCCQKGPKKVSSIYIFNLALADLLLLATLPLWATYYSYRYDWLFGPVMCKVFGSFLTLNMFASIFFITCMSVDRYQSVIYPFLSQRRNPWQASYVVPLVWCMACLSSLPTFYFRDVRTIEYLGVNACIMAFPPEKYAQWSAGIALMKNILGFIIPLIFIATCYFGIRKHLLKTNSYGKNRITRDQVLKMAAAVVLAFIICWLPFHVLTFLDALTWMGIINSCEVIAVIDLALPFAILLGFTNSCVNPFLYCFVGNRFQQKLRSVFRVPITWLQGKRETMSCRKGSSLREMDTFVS
UniProt P30554, sequence (P30554 whole entry): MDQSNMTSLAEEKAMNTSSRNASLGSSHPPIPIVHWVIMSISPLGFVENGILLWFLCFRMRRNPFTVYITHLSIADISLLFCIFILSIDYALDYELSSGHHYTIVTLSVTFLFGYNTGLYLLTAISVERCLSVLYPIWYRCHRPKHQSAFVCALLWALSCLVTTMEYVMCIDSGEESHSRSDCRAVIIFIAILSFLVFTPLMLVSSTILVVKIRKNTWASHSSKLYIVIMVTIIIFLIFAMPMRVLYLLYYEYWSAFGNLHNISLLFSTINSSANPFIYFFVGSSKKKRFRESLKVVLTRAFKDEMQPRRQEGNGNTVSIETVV

| percent of cells with PLA signal [1] | red dots per dot-containing cell (red dots/cell-expressing dots) [1] | percent of cells with PLA signal [2] | percent of cells with PLA signal [3] | red dots per dot-containing cell (red dots/cell-expressing dots) [3] | percent of cells with PLA signal [4] | red dots per dot-containing cell (red dots/cell-expressing dots) [4] | percent of cells with PLA signal [5] | percent of cells with PLA signal [6] | Substance |
| --- | --- | --- | --- | --- | --- | --- | --- | --- | --- |
| 11 % of cells | 6 | < 1 % of cells |  |  |  |  |  |  | ACE2, endogenous in mouse lung (from UniProt Q8R0I0 18-805) (proximity to ACE2) |
|  |  |  | 14 % of cells | 10 | 8 % of cells | 7 | < 1 % of cells | < 1 % of cells | ACE2, endogenous in mouse lung (from UniProt Q8R0I0 18-805) (enzyme) |
